The values that follow come from patent US6551840B2, “Method of screening TGF-β-inhibiting substances” (Chugai Seiyaku Kabushiki Kaisha, priority 1997, dated 2003).

Test [1] relates to mouse kidney mesangial cell line SV40MES13. Nature of the test: Type I and type IV collagen EIA in SV40MES13 cells expressing TAK1-DN with or without TGF-β. It counts as cell-based. Particulars: 2.5 ng/ml TGF-β, 24 hours; for increase of type IV collagen in the culture supernatant by TGF-β addition: control MES/NEO about 2.0 fold; for increase of type I collagen in the culture supernatant by TGF-β addition: control MES/NEO about 3.6 fold. As to the method:
(§1) The mouse mesangial cell line SV40MES13 (MES/DN3 and MES/DN6) into which pTAK1DN had been introduced and the control cells (MES/NEO) into which pCOS1 containing no inserted genes had been introduced were incubated in a low-serum medium (Medium 199 containing 0.2% FBS) with or without 2.5 ng/ml TGF-β for 24 hours. The amount of fibronectin in the culture supernatant or the extracellular matrix extract prepared using 1 M urea solution was determined by the EIA method as described in Example 7.
Furthermore, the amount of type I and type IV collagen in the culture supernatant was determined by the EIA method. Thus, 100 μl of the culture supernatant was added to a 96-well microtiter plate (manufactured by Nunc), and the plate was incubated overnight at 4° C. After washing, it was blocked using the above 1% BSA solution, and then 5000-fold diluted rabbit anti-mouse type I collagen antibody (manufactured by LSL) or rabbit anti-mouse type IV collagen antibody (manufactured by LSL) was added, and was further incubated at room temperature for 2 hours. After washing, alkaline phosphatase-labeled goat anti-rabbit Ig antibody (manufactured by TAGO) was added, and was further incubated at room temperature for one hour. Then the substrate solution (manufactured by Sigma) was added and absorbance at […] was measured. As a standard, mouse type I collagen (manufactured by Chemicon) or mouse type IV collagen (manufactured by Cosmobio) was used.

The test system of another test is Mv1Lu cell. Nature of the test: PAI-1 ELISA in culture supernatant of Mv1Lu cells with or without TGF-β1. It counts as cell-based, mink. Particulars: Mv1Lu cells with forced expression; 10 ng/ml TGF-β1, 24 hours; control cells about 16-fold. An excerpt: Accordingly, TAK1DN was subjected to forced expression in the Mv1Lu cell to investigate the effects of TGF-β stimulation on PAI-1 expression. The TAK1DN expression vector used was the above-mentioned TAK1DN, and the TAK1 polypeptide mutant TAK1-K63W expression vector was constructed by inserting a gene (Yamaguchi K. et al., (1995) Science 270, 2008-2011) encoding the TAK1 polypeptide mutant TAK1-K63W in which the lysine residue at position 63 has been replaced with the tryptophan residue at the EcoRI and NotI restriction enzyme site of pCOS1 to give pTAK1K63W.
The Mv1Lu cells into which pTAK1Dn had been introduced (Mv/DN2), the cells into which pTAK1K63W had been introduced (Mv/KN7), and the control cells into which pCOS1 containing no inserted genes (Mv/NEO) had been introduced were each incubated in a low-serum medium (MEM medium containing 0.2% FBS; manufactured by GIBCO-BRL) with or without 10 ng/ml of TGF-β1 for 24 hours. The amount of PAI-1 in the culture supernatant was determined using the PAI-1 Quantative ELISA (manufactured by CALBIOCHEM).
(In general: An ELISA detects its analyte on a solid surface through an enzyme-linked reagent.)

Test [2] deals with mouse kidney mesangial cell line SV40MES13. Put plainly: Fibronectin EIA in SV40MES13 cells expressing TAK1-DN with or without TGF-β. As to conditions: 2.5 ng/ml TGF-β, 24 hours; for increase of fibronectin in the culture supernatant by TGF-β addition: control MES/NEO about 3.3 fold; for increase of fibronectin in the extracellular matrix extract by TGF-β addition: control MES/NEO about 3.8 fold. Type of test: cell-based.
Description: Then, pTAK1DN or pCOS1 that contains no inserted genes as a control vector was linearized by digesting with a restriction enzyme PvuI. These linearized vectors were introduced by electroporation into human fibroblast-derived HT-1080 (ATCC CCL 121), a mouse kidney mesangial cell line SV40MES13 (ATCC CRL 1927), and a mink pulmonary epithelial cell line Mv1Lu (ATCC CCL 64), and cells into which the gene was introduced were selected using G418 (manufactured by GIBCO-BRL).
as §1

B1: TAK1-DN: polypeptide of Glu at position 77 to Gln at position 303 of TAK1 (SEQ ID NO: 4), the TAB1 binding site; dominant negative inhibitor (protein)
chain: ELRQLSRVNHPNIVKLYGACLNPVCLVMEYAEGGSLYNVLHGAEPLPYYTAAHAMSWCLQCSQGVAYLHSMQPKALIHRDLKPPNLLLVAGGTVLKICDFGTACDIQTHMTNNKGSAAWMAPEVFEGSNYSEKCDVFSWGIILWEVITRRKPFDEIGGPAFRIMWAVHNGTRPPLIKNLPKPIESLMTRCWSKDPSQRPSMEEIVKIMTHLMRYFPGADEPLQYPCQ
B1: in test [1] (MED/DN3 cells), the “increase of type IV collagen in the culture supernatant by TGF-β addition” value is recorded as “about 1.5 fold” and the “increase of type I collagen in the culture supernatant by TGF-β addition” value is recorded as “about 2.0 fold”. Besides, in test [1] (MES/DN6 cells), the “increase of type IV collagen in the culture supernatant by TGF-β addition” value is around 1.4 fold and the “increase of type I collagen in the culture supernatant by TGF-β addition” value is “about 2.0 fold”. Also, in the test with Mv1Lu cell, the “increase in PAI-1 in the culture supernatant by TGF-β1 addition” value is reported as “about 4.3 fold”. Also, in test [2] (MED/DN3 cells), the “increase of fibronectin in the culture supernatant by TGF-β addition” value is on record as “about 2.4 fold” and the “increase of fibronectin in the extracellular matrix extract by TGF-β addition” value is recorded as “about 2.6 fold”. Moreover, in test [2] (MES/DN6 cells), the “increase of fibronectin in the culture supernatant by TGF-β addition” value is around 2.3 fold and the “increase of fibronectin in the extracellular matrix extract by TGF-β addition” value was around 2.1 fold.
